# Reference: the supplement of paper PMC9170038
# Tested on: MS2 coat protein
# Assay: apparent KD of MS2 coat protein; designed switch direction (-1 OFF switch, 1 ON switch): -1; higher = weaker reporter binding
# In short: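 Designed RNA switches with common flanks were transcribed on Illumina chips by stalled E. coli RNA polymerase and titrated with SNAP-549-labelled MS2 coat protein, from 0.7 or 1.5 nM doubling to 3 µM, in Tris-HCl pH 7.5 buffer with KCl, MgCl2, BSA, DTT, tRNA and Tween-20. Steps lasted 0.8–1.5 h (lowest) to 10–20 min (highest). Titrations ran without input, with 200 uM small-molecule ligand, or with an oligonucleotide input. Normalised cluster fluorescence was curve-fitted, and apparent KD is the per-design median over clusters.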
# [1] = Eterna round: R95, input ligand: FMN 200 uM
# [2] = Eterna round: R95, input ligand: microRNA oligo, concentration not stated
# [3] = Eterna round: R95, input ligand: none
# [4] = input ligand: microRNA oligo, concentration not stated
sequence,measurement,setting,value
GGUCCACAUGAGGAUCACCCAUGUUAGGAUAUCUCCUGCCUCCUCACUGGAGGCAGACAGAGAAGGAACAUCAA [Eratxe] (puzzle: Exclusion 1),apparent KD of MS2 coat protein,[1],78.3 nM
same,apparent KD of MS2 coat protein,[2],22 nM
same,apparent KD of MS2 coat protein,[3],23.9 nM
"AGAUCGUCAGGAUAUACAUGAGGAUCACCCAUGUAUUGUCUAAAUUUGACUAUACGAUGUAGAAGGGACGAUCG [Exclusion 3 (MOD7 of #1 Marzena11)] (Eterna round: R97, puzzle: Exclusion 3)",apparent KD of MS2 coat protein,input ligand: FMN 200 uM,41.7 nM
same,apparent KD of MS2 coat protein,input ligand: none,16.2 nM
"AGAUGCUCGAGUCGACAUGAGGAUCACCCAUGUACAGUUAGUGAGGAUAUCUGAGACACAUAGUAGGAGAAGGCGCGAACAUGA [Ex NG3 #13] (Eterna round: R96, puzzle: Exclusion NG 3)",apparent KD of MS2 coat protein,input ligand: FMN 200 uM,132 nM
same,apparent KD of MS2 coat protein,[4],43.4 nM
same,apparent KD of MS2 coat protein,input ligand: none,60 nM
"UAUAUGUCAGGAUAUUAGUAGUAAAUGAAUAAAAUUAUUACUGAGAAGGGACAUGAGGAUCACCCAUGUGCCUC [Mat - Exclusion 4 - Eli Mod - D24] (Eterna round: R97, puzzle: Exclusion 4)",apparent KD of MS2 coat protein,input ligand: FMN 200 uM,387 nM
same,apparent KD of MS2 coat protein,input ligand: none,37.4 nM
"UUUAGUUCAGGAUAUGUAGACAUUAACAUGAGGAUCACCCAUGUAGAUCCUGAAUUGACUACAGAAGGGAGCAUUU [Mod of Brourd 9 - Jieux - Exclusion 5] (Eterna round: R97, puzzle: Exclusion 5)",apparent KD of MS2 coat protein,input ligand: FMN 200 uM,88.9 nM
same,apparent KD of MS2 coat protein,input ligand: none,23.9 nM
"CCUCGGUCAGGAUAUGGGCCAUGCGAUGAUGAAGCCUGGCGCCAGAAGGGACAUGAGGAUCACCCAUGUCCGUA [Eternabot (Original) Solution 37] (Eterna round: R97, puzzle: Exclusion 4)",apparent KD of MS2 coat protein,input ligand: FMN 200 uM,71.3 nM
same,apparent KD of MS2 coat protein,input ligand: none,17.2 nM
"AAGAUGUAAGGAUAUGCUGCUCGUCACAAAAGUGAUGAGUAGCAGAAGGUACAUGAGGAUCACCCAUGUAGAGA [Opal 38] (Eterna round: R96, puzzle: Exclusion 4)",apparent KD of MS2 coat protein,input ligand: FMN 200 uM,60.6 nM
same,apparent KD of MS2 coat protein,[4],18.2 nM
same,apparent KD of MS2 coat protein,input ligand: none,22.7 nM
"UUUAAUUUUUUUUUUUUACAAGCUUUUUGCUCGUCUUAUACAUGAGGAUCACCCAUGUAAGUGGGAAGUAAAUUAUC [JMF 54] (puzzle: Sensor v3, turn-off variant 2)",apparent KD of MS2 coat protein,[1],48.3 nM
same,apparent KD of MS2 coat protein,[2],184 nM
same,apparent KD of MS2 coat protein,[3],83.8 nM
"GAUUAACAUGAGGAUCACCCAUGUGAGGAUAUGGACUUGCCCACUUACCCAUUAGAGUCUAGAAGGCGCAUCUG [1986#23] (Eterna round: R97, puzzle: Exclusion 1)",apparent KD of MS2 coat protein,input ligand: FMN 200 uM,48.4 nM
same,apparent KD of MS2 coat protein,input ligand: none,49.8 nM
"AUGAGCAGACGGAGAUCCAACAUGAGGAUCACCCAUGUCUCAAAAGCUUUUUGCUCAUCUUAUUGUACCUUGGUGCA [Mat - Sensor v3 - turn-off var 1 - JL Mod - D17] (puzzle: Sensor v3, turn-off variant 1)",apparent KD of MS2 coat protein,[1],172 nM
same,apparent KD of MS2 coat protein,[2],16.5 nM
same,apparent KD of MS2 coat protein,[3],213 nM
"GCCGUCAAUGUGAGGAUAUGCCUAUGGAUACGUAGGCAGAAGGCACAUGAGGAUCACCCAUGUCCAAAGACGGC [JL-BMX4-4.31 Eli mod] (Eterna round: R97, puzzle: Brourd's mod of Exclusion 4)",apparent KD of MS2 coat protein,input ligand: FMN 200 uM,2170 nM
same,apparent KD of MS2 coat protein,input ligand: none,200 nM
"AGGUACUUCAGGAGACAUGAGGAUCACCCAUGUUGAGUUAGCGAGGAUAUCGGUAACCAUUGUUAUGAGAAGGCGCAAACCAGA [Ex NG3 #42] (Eterna round: R96, puzzle: Exclusion NG 3)",apparent KD of MS2 coat protein,input ligand: FMN 200 uM,25.9 nM
same,apparent KD of MS2 coat protein,[4],15 nM
same,apparent KD of MS2 coat protein,input ligand: none,15.3 nM
"UUGUGCACGCUGCGAUCCUACAUGAGGAUCACCCAUGUGGUCUGGUGGCGUGGGUCACCGGACUUGGCUCGUCUUGU [salish99_S_TOV1_R5_080] (Eterna round: R97, puzzle: Sensor, turn-off variant 1)",apparent KD of MS2 coat protein,input ligand: FMN 200 uM,69.6 nM
same,apparent KD of MS2 coat protein,input ligand: none,80.8 nM
CGGACCCGAGGAUAUCGUAAACCCGACAUGAGGAUCACCCAUGUCAUCCUCACGGCGCCACGAGAAGGCGGUGUUA [Ansolaedra] (puzzle: Exclusion 5),apparent KD of MS2 coat protein,[2],21.8 nM
"AGAACAUGAGGAUCACCCAUGUCGCUUUGCCUACCAAACAGGGAGGAUAUGUAGGGCGCGCACCUACAGAAGGCCCAAACGGAA [Eternabot solution 13] (Eterna round: R96, puzzle: Exclusion NG 3)",apparent KD of MS2 coat protein,input ligand: FMN 200 uM,17 nM
same,apparent KD of MS2 coat protein,[4],18.5 nM
same,apparent KD of MS2 coat protein,input ligand: none,22.5 nM
GGCAAUAUGUAGGAUAUCGUAUCGGAAACGAUACGAGAAGGGCAAACAUGAGGAUCACCCAUGUUCUUCAAGCC [Fiskers Ex 6 - 11] (puzzle: Exclusion 6),apparent KD of MS2 coat protein,[2],15.6 nM
"GCAGGUCAAGGAUAUACAUGAGGAUCACCCAUGUGAUUAGCAGUCCUCGGACUGCAAUGUAGAAGGUGACCUGC [E3/2-C2] (Eterna round: R97, puzzle: Exclusion 3)",apparent KD of MS2 coat protein,input ligand: FMN 200 uM,2140 nM
same,apparent KD of MS2 coat protein,input ligand: none,329 nM
"UUAUUAUAUGUAGGAUAUGCGUAUUAUUGUUAUGCAGAAGGACAUGAGGAUCACCCAUGUAUAUUAUUGUUAUAUAUUAUAUGU [Title] (Eterna round: R96, puzzle: Exclusion NG 1)",apparent KD of MS2 coat protein,input ligand: FMN 200 uM,110 nM
same,apparent KD of MS2 coat protein,[4],26.6 nM
same,apparent KD of MS2 coat protein,input ligand: none,30.3 nM
GGUUGGCGAGGAUAUACAUGAGGAUCACCCAUGUGAGAGAAAAAAGUCAGGAAGAAAAGUAGAAGGCGCUGACG [salish99_ex3_r3_028] (puzzle: Exclusion 3),apparent KD of MS2 coat protein,[1],32.4 nM
same,apparent KD of MS2 coat protein,[2],21.7 nM
same,apparent KD of MS2 coat protein,[3],22.5 nM
GGCAUAAACGAGGAUAUCGUAUCGGAAACGAUACGAGAAGGUGUAACAUGAGGAUCACCCAUGUUCCUCAAGCC [Mat - Exclusion 6 - Eli Mod - D58] (puzzle: Exclusion 6),apparent KD of MS2 coat protein,[2],38.1 nM
"CCGGAAAGGAAGGAUAUGCUUGACGAAAGUCAAGCAGAAGGUCCUACAUGAGGAUCACCCAUGUGGCCUCCCGG [Mat - Exclusion 6 - Eli Mod - D48] (Eterna round: R97, puzzle: Exclusion 6)",apparent KD of MS2 coat protein,input ligand: FMN 200 uM,737 nM
same,apparent KD of MS2 coat protein,input ligand: none,128 nM
"UCUAGCUUUUUGCGUCAAGCAUUGAAGUCUGUUAUCGUUACAUGAGGAUCACCCAUGUUUGUUUUAUGUCGUCUUGA [JR_SV3TOV2_Sub100] (puzzle: Sensor v3, turn-off variant 2)",apparent KD of MS2 coat protein,[1],19.3 nM
same,apparent KD of MS2 coat protein,[2],15.6 nM
same,apparent KD of MS2 coat protein,[3],22.2 nM
CUUAAGGCAGGAUAUGCUUUUUGUGACAUGAGGAUCACCCAUGUGAUGCAGUUUGGGUGUGCAGAAGGGCCUGAGU [JR_E5_Sub033] (puzzle: Exclusion 5),apparent KD of MS2 coat protein,[2],378 nM
"UUUAAUUUUUUUUUUUUACAAGCUUUUUGCUCGUCUUAUACAUGAGGAUCACCCAUGUGGAUGGGAGAUAAAUUAUC [JMF 19] (puzzle: Sensor v3, turn-off variant 2)",apparent KD of MS2 coat protein,[1],30.9 nM
same,apparent KD of MS2 coat protein,[2],164 nM
same,apparent KD of MS2 coat protein,[3],36.4 nM
"AGUUACUACAAGCUUUGGGACAUGAGGAUCACCCAUGUUCGUCUUAUUGUAGUAGGUACGCUGACGUACCUACUACU [Mat - Sensor v3 - turn-off var 1 - JL Mod - D6] (puzzle: Sensor v3, turn-off variant 1)",apparent KD of MS2 coat protein,[1],15.9 nM
same,apparent KD of MS2 coat protein,[2],42.8 nM
same,apparent KD of MS2 coat protein,[3],14.5 nM
"UUAUUAGCAGGAUAUAUCCGGGAUCACAUGAGGAUCACCCAUGUGACCGCUUGAGAUUCUAUAGAAGGGCUUUAUU [Mod of ViennaUCT 32 - Jieux - Exclusion 5] (Eterna round: R97, puzzle: Exclusion 5)",apparent KD of MS2 coat protein,input ligand: FMN 200 uM,19.6 nM
same,apparent KD of MS2 coat protein,input ligand: none,18.6 nM
"UUGGUUGUGGUAGGAUAUCCGUUGGAAACUGUUGGAGAAGGACCACAGUCACUGGGUCUUUGUUUGGUGGAGUGGAAGAACCAU [pwkr exNG1 F6.18] (Eterna round: R96, puzzle: Exclusion NG 1)",apparent KD of MS2 coat protein,input ligand: FMN 200 uM,166 nM
same,apparent KD of MS2 coat protein,[4],532 nM
same,apparent KD of MS2 coat protein,input ligand: none,324 nM
"AAACAGGAAGGAUAUACAUGAGGAUCACCCAUGUAGGAAAACCUACCAAAAGACCCAAGUAGAAGGUCCGAAAA [jl-ex3-4.64 ViennaUCT mod] (Eterna round: R97, puzzle: Exclusion 3)",apparent KD of MS2 coat protein,input ligand: FMN 200 uM,25.8 nM
same,apparent KD of MS2 coat protein,input ligand: none,15.3 nM
"AGUACUAACACGAAAGUGUUAGUACAAUAAGCUUGUGAAACAUGAGGAUCACCCAUGUCCUCAUUAGCUCGUCUUAU [salish99_TOv2_r3_050] (puzzle: Sensor v3, turn-off variant 2)",apparent KD of MS2 coat protein,[1],184 nM
same,apparent KD of MS2 coat protein,[2],451 nM
same,apparent KD of MS2 coat protein,[3],172 nM
"AGCCUCUAAGGAUAUACAUGAGGAUCACCCAUGUACUUAGAAGGGAAACCUUCUAUAUGUAGAAGGUAGAAGCA [Exclusion 3 S1] (Eterna round: R97, puzzle: Exclusion 3)",apparent KD of MS2 coat protein,input ligand: FMN 200 uM,16 nM
same,apparent KD of MS2 coat protein,input ligand: none,12.7 nM
"GGGCUCGGAGGAUAUACAAUGGGCUCGGGAAAUCGGGCUCUACAUGAGGAUCACCCAUGUAGAAGGUCGGGCUC [-38.9, -35.6 kcal A 24%, 4,4] (Eterna round: R97, puzzle: Exclusion 2)",apparent KD of MS2 coat protein,input ligand: FMN 200 uM,16.4 nM
same,apparent KD of MS2 coat protein,input ligand: none,14.1 nM
"AAUUAGCAAGCGAGGUCCCACAUGAGGAUCACCCAUGUGCUCGUCUUAUAAGGUACUGUGACGAGAGUCACGGUACC [Mat - Sensor, turn-off var - Eli Mod - D35] (Eterna round: R97, puzzle: Sensor, turn-off variant 1)",apparent KD of MS2 coat protein,input ligand: FMN 200 uM,13.8 nM
same,apparent KD of MS2 coat protein,input ligand: none,15.2 nM
"CCUCUGUCAGGAUAUCGUGCAUACAACGAAAGUUCUAUGUGCGAGAAGGGACAUGAGGAUCACCCAUGUUUGCG [Omei Ex4 A21] (Eterna round: R97, puzzle: Exclusion 4)",apparent KD of MS2 coat protein,input ligand: FMN 200 uM,225 nM
same,apparent KD of MS2 coat protein,input ligand: none,62.5 nM
